Source: patent US20140030218A1, “Treatment And Screening” (IMPERIAL INNOVATIONS LIMITED, published 2014)
Each block holds one binder with its values, some of them ahead of it.

B7: human IRF5 tagged with one-strep tag (N-terminus) and HA tag (C-terminus) (other)
chain: MNQSIPVAPTPPRRVRLKPWLVAQVNSCQYPGLQWVNGEKKLFCIPWRHATRHGPSQDGDNTIFKAWAKETGKYTEGVDEADPAKWKANLRCALNKSRDFRLIYDGPRDMPPQPYKIYEVCSNGPAPTDSQPPEDYSFGAGEEEEEEEELQRMLPSLSLTEDVKWPPTLQPPTLQPPVVLGPPAPDPSPLAPPPGNPAGFRELLSEVLEPGPLPASLPPAGEQLLPDLLISPHMLPLTDLEIKFQYRGRPPRALTISNPHGCRLFYSQLEATQEQVELFGPISLEQVRFPSPEDIPSDKQRFYTNQLLDVLDRGLILQLQGQDLYAIRLCQCKVFWSGPCASAHDSCPNPIQREVKTKLFSLEHFLNELILFQKGQTNTPPPFEIFFCFGEEWPDRKPREKKLITVQVVPVAARLLLEMFSGELSWSADSIRLQISNPDLKDRMVEQFKELHHIWQSQQRLQPVAQAPPGAGLGVGQGPWPMHPAGMQ
notes: Expressed in HEK-293-TLR4-CD14/Md2 cells and purified on Strep-Tactin after formaldehyde cross-linking; also called onestrep-IRF5-HA; IRF5 with an N-terminal one-strep tag and a C-terminal HA tag; not shown: N-terminal one-strep tag; C-terminal HA tag

Assays:
[1] = target: T1, IRF5 DBD (aa 1-131) (Homo sapiens, UniProt Q13568 SEQ:1-131); assay: EMSA; 50 ng IRF5 DBD; ISRE 1/2 said to interact in vitro; conditions: tags: expressed from pET21d in bacteria; label: 32P (dCTP fill-in); 5' agct overhangs
Method: (§1) (A) Recombinant purified IRF5-DBD was used in an EMSA with radioactive probe corresponding to the selected ISRE and κB sites. PRDI-III (IFN-˜ promoter) was used as a positive control.
(§2) Binding reactions with 50 ng of bacterially expressed and purified IRF5 DBD and EMSA gel separation were performed as previously described⁵.

[2] = target: T1, IRF5 DBD (aa 1-131); assay: EMSA; non-consensus ISRE; conditions: tags: expressed from pET21d in bacteria; label: 32P (dCTP fill-in); 5' agct overhangs
Method: as §1, §2

[3] = target: B7; assay: Strep-Tactin pull-down of one-strep-IRF5-HA from formaldehyde-cross-linked HEK-293 cells, immunoblot
Method: (§3) HEK-293-TLR4-CD14/Md2 cells were transfected with onestrep-IRF5-HA construct or corresponding empty vector. 24 hrs post transfection cells were fixed with 1% formaldehyde for 10 minutes at room temperature prior to high salt lysis and affinity purification on Strep-Tactin MacroPrep sepharose (IBA). The eluates were de-crosslinked by incubating at 65° C. overnight prior to separation by SDS-PAGE. Exogenous IRF5 and endogenous RelA were detected by immunoblotting with anti-HA-HRP (12013819001, Roche) and anti-RelA (sc-372, Santa-Cruz, US). Alternatively, cells were transfected with RelA-FLAG or BAP-FLAG control protein. 24 hrs post transfection cells were lysed and affinity purified with anti-FLAG M2 sepharose beads (Sigma, UK). Exogenous RelA and endogenous IRF5 were detected by immunoblotting with anti-FLAG-HRP (A8592, Sigma, UK) and anti-IRF5 (Abcam, UK). Interaction of endogenous RelA and IRF5 was detected by overnight incubation of the cell lysates with goat anti-IRF5 antibody (ab2932, Abcam, UK) or no antibody control prior to precipitation with protein G beads. IRF5 was detected by immunoblotting with mouse anti-IRF5 antibody (sc-56714, Santa-Cruz, USA) while RelA—by immunoblotting with anti-RelA. Triton X-100 extracted nuclei and DNase I digestion of chromatin was performed as described previously¹⁷.
(§4) IRF5 with an N-terminal one-strep tag and a C-terminal HA tag was expressed in HEK-293 cells. […] To determine whether this interaction was specific, we immunoblotted for other NE-κB family members: Rel-B, c-Rel, p50 and p52, or a control protein tubulin. […] Furthermore we conducted a complementary experiment, in which human RelA containing C-terminal FLAG tag was expressed in HEK-293 cells and immunoprecipitated in the absence of a cross-linking agents on anti-FLAG sepharose. Specific interactions between ectopically expressed RelA and endogenous IRF5 were observed. No interaction was detected between a control FLAG-tagged bacterial alkaline phosphatase (BAP) and IRF5 (FIG. 24B, compare lanes 1 and 2).

[4] = target: T2, human RelA containing C-terminal FLAG tag (human, UniProt Q04206 1-551); assay: One-Strep affinity purification from co-transfected HEK293-TLR4-CD14/Md2 cells, Western blot
T2 construct: Expressed in HEK-293 cells; also called RelA-FLAG; Flag-tagged RelA; not shown: C-terminal FLAG tag
T2 sequence (Q04206 other isoform, or with tags, fused parts or gaps): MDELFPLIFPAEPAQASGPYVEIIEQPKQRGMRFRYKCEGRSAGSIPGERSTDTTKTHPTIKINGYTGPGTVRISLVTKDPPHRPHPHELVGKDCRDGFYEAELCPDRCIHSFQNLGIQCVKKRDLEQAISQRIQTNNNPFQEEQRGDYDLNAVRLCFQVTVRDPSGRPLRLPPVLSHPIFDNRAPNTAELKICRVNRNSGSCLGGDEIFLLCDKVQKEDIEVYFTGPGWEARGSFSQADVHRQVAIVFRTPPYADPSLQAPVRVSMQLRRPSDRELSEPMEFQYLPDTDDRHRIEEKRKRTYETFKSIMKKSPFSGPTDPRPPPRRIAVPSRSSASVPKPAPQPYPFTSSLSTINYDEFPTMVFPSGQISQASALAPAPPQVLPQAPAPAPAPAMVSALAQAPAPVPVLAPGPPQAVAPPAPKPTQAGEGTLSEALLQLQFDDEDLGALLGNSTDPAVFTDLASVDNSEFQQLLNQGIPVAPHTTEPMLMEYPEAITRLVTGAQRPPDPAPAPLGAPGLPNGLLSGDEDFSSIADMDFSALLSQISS

[5] = target: T3, c-Rel (UniProt Q04864 2-619, limits assumed); assay: Strep-Tactin pull-down of one-strep-IRF5-HA from formaldehyde-cross-linked HEK-293 cells, immunoblot
T3 construct: Endogenous protein in HEK-293 lysate, probed by immunoblot
T3 sequence (looked up): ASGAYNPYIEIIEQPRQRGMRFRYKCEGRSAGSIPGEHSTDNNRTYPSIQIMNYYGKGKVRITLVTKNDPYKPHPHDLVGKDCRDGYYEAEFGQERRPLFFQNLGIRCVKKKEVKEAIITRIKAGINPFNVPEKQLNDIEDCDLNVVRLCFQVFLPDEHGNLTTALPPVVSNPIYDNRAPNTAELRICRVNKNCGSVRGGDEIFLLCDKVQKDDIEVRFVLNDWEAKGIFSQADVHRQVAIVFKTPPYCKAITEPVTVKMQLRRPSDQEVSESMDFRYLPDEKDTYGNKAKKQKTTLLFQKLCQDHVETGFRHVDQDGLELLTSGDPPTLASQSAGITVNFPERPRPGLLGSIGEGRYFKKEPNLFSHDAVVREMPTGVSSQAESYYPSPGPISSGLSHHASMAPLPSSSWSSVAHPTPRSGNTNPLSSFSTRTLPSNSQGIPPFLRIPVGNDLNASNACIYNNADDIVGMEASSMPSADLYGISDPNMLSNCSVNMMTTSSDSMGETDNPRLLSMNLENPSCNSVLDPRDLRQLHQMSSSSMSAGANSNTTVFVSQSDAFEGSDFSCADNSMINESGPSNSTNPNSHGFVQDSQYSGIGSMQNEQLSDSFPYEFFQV
Method: as §3, §4

[6] = target: T4, Rel-B (UniProt Q01201 1-579); assay: as above
T4 construct: Endogenous protein in HEK-293 lysate, probed by immunoblot
T4 sequence (looked up): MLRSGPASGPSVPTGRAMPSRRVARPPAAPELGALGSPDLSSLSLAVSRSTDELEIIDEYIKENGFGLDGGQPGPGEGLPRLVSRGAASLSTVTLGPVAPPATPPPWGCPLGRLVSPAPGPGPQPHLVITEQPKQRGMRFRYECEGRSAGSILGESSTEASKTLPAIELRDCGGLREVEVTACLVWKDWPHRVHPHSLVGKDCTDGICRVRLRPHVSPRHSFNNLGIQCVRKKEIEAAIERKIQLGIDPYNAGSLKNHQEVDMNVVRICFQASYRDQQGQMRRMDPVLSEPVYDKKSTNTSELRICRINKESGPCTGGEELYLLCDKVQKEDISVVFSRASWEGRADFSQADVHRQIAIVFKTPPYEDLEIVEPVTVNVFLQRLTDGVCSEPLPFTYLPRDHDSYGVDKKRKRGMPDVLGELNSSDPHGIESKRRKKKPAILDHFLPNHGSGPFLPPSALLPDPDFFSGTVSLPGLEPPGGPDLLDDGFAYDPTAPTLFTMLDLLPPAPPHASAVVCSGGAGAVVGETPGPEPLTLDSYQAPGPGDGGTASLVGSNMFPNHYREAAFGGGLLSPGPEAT
Method: as §3, §4

[7] = target: T1, IRF5 DBD (aa 1-131); assay: EMSA; 50 ng IRF5 DBD; conditions: tags: expressed from pET21d in bacteria; label: 32P (dCTP fill-in); 5' agct overhangs
Method: as §1, §2

B1: TNF ISRE1 (dsDNA)
DNA 1: AGCTGAAGCCAAGACTGAAACCAGCATTA
DNA 2: AGCTTAATGCTGGTTTCAGTCTTGGCTTC
- binding result [1]: binds

B2: TNF 'ISRE'17 (dsDNA)
DNA 1: AGCTACATAAACAAAGCCCAACAGAATATTCC
DNA 2: AGCTGGAATATTCTGTTGGGCTTTGTTTATGT
- binding result [2]: no binding

- binding result [3]: no binding
B3: p50 (other, UniProt P19838 1-433, looked up)
chain: MAEDDPYLGRPEQMFHLDPSLTHTIFNPEVFQPQMALPTDGPYLQILEQPKQRGFRFRYVCEGPSHGGLPGASSEKNKKSYPQVKICNYVGPAKVIVQLVTNGKNIHLHAHSLVGKHCEDGICTVTAGPKDMVVGFANLGILHVTKKKVFETLEARMTEACIRGYNPGLLVHPDLAYLQAEGGGDRQLGDREKELIRQAALQQTKEMDLSVVRLMFTAFLPDSTGSFTRRLEPVVSDAIYDSKAPNASNLKIVRMDRTAGCVTGGEEIYLLCDKVQKDDIQIRFYEEEENGGVWEGFGDFSPTDVHRQFAIVFKTPKYKDINITKPASVFVQLRRKSDLETSEPKPFLYYPEIKDKEEVQRKRQKLMPNFSDSFGGGSGAGAGGGGMFGSGGGGGGTGSTGPGYSFPHYGFPTYGGITFHPGTTKSNAGMKHG
notes: Endogenous protein in HEK-293 lysate, probed by immunoblot; also called NF-kB p50

- binding result [3]: no binding
B4: p52 (other, UniProt Q00653 1-454, looked up)
chain: MESCYNPGLDGIIEYDDFKLNSSIVEPKEPAPETADGPYLVIVEQPKQRGFRFRYGCEGPSHGGLPGASSEKGRKTYPTVKICNYEGPAKIEVDLVTHSDPPRAHAHSLVGKQCSELGICAVSVGPKDMTAQFNNLGVLHVTKKNMMGTMIQKLQRQRLRSRPQGLTEAEQRELEQEAKELKKVMDLSIVRLRFSAFLRASDGSFSLPLKPVISQPIHDSKSPGASNLKISRMDKTAGSVRGGDEVYLLCDKVQKDDIEVRFYEDDENGWQAFGDFSPTDVHKQYAIVFRTPPYHKMKIERPVTVFLQLKRKRGGDVSDSKQFTYYPLVEDKEEVQRKRRKALPTFSQPFGGGSHMGGGSGGAAGGYGGAGGGGSLGFFPSSLAYSPYQSGAGPMGCYPGGGGGAQMAATVPSRDSGEEAAEPSAPSRTPQCEPQAPEMLQRAREYNARLFGLA
notes: Endogenous protein in HEK-293 lysate, probed by immunoblot; also called NF-kB p52

B5: TNF 'ISRE'16 (dsDNA)
DNA 1: AGCTTTTGCTTAGAAAAGAAACATGGTCTC
DNA 2: AGCTGAGACCATGTTTCTTTTCTAAGCAAA
- binding result [2]: no binding

- binding result [4]: binds
B6: One-Strep-IRF5 fusion protein (other)
chain: MNQSIPVAPTPPRRVRLKPWLVAQVNSCQYPGLQWVNGEKKLFCIPWRHATRHGPSQDGDNTIFKAWAKETGKYTEGVDEADPAKWKANLRCALNKSRDFRLIYDGPRDMPPQPYKIYEVCSNGPAPTDSQPPEDYSFGAGEEEEEEEELQRMLPSLSLTEDVKWPPTLQPPTLQPPVVLGPPAPDPSPLAPPPGNPAGFRELLSEVLEPGPLPASLPPAGEQLLPDLLISPHMLPLTDLEIKFQYRGRPPRALTISNPHGCRLFYSQLEATQEQVELFGPISLEQVRFPSPEDIPSDKQRFYTNQLLDVLDRGLILQLQGQDLYAIRLCQCKVFWSGPCASAHDSCPNPIQREVKTKLFSLEHFLNELILFQKGQTNTPPPFEIFFCFGEEWPDRKPREKKLITVQVVPVAARLLLEMFSGELSWSADSIRLQISNPDLKDRMVEQFKELHHIWQSQQRLQPVAQAPPGAGLGVGQGPWPMHPAGMQ
notes: also called full-length IRF5 (One-Strep bait); not shown: One-Strep tag

Binder: B7
- binding result [5]: no binding
- binding result [6]: no binding

B8: TNF kB4b (dsDNA)
DNA 1: AGCTCTTGCTGGGAAAATCCTGCAG
DNA 2: AGCTGCTGCAGGATTTTCCCAGCAAG
- binding result [7]: no binding

B9: TNF kB4a (dsDNA)
DNA 1: AGCTAACTCTGGGAATTCCAATCCTT
DNA 2: AGCTAAGGATTGGAATTCCCAGAGTT
- binding result [7]: no binding
